Substitutions are numbered along the chain they refer to. Names and notes keep the numbering of the source.

In test [1] the target is T1, human IL-17A (human, UniProt Q16552 24-155, biotinylated with Sulfo-NHS-LC-Biotin in the AlphaScreen assays only).
T1 construct: also called hIL-17A; recombinant human IL-17A
Put plainly: SPR Biacore, hIL-17A on chip; periplasmic extract (*); NB = no binding. In general terms: Surface plasmon resonance follows binding to a sensor surface in real time, without labels.
Experimental: (§1) Off-rates of the periplasmic extracts containing anti-IL-17 Nanobodies were measured by Surface Plasmon Resonance (SPR) using a Biacore T100 instrument. […] Periplasmic extracts containing IL-17 neutralizing Nanobodies were injected for 2 minutes at a flow rate of 45 μl/min to allow binding to chip-bound antigen. Next, binding buffer without periplasmic extracts was sent over the chip at the same flow rate to allow spontaneous dissociation of bound Nanobody. From the sensorgrams obtained for the different periplasmic extracts koff-values (k₄) were calculated.

The target in test [2] is T2, human IL-17A/F heterodimer (human, UniProt Q16552 24-155; Q96PD4 31-163, limits assumed, biotinylated with Sulfo-NHS-LC-Biotin in the AlphaScreen assays only).
T2 construct: also called hIL-17A/F
The experiment in a line: AlphaScreen competition, hIL-17A/F - IL-17RA-Fc.
Target sequence in this assay (Q16552 24-155 limits assumed, one chain of several): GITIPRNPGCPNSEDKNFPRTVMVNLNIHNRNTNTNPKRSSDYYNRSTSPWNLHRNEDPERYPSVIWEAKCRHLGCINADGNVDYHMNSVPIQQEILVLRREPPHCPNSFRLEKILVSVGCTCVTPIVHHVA
Experimental: (§2) To this mixture, the IL-17RA or IL-17RC Fc-fusions, Acceptor beads and the streptavidin Donor beads were added and further incubated for 1 hour at RT.

The target of test [3] is T2, human IL-17A/F heterodimer. The experiment in a line: SPR Biacore, hIL-17A/F on chip; purified protein.
Target sequence in this assay (Q16552 24-155 limits assumed, chain 1 of 2, one chain of several): as the sequence (Q16552 24-155 limits assumed, one chain of several) above
Test [4] has as its target T3, human IL-17F (human, UniProt Q96PD4 31-163, biotinylated with Sulfo-NHS-LC-Biotin in the AlphaScreen assays only).
T3 sequence: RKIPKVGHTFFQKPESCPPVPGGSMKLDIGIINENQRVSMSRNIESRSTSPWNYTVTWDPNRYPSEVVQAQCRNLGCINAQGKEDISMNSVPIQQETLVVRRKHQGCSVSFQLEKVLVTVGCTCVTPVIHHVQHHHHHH
The experiment in a line: cell-based or functional assay.

Test [5] addresses T2, human IL-17A/F heterodimer. The experiment in a line: cell-based or functional assay.
Target sequence in this assay (Q16552 24-155 limits assumed, chain 1 of 2, one chain of several): as the sequence (Q16552 24-155 limits assumed, one chain of several) above
Test [6] deals with T3, human IL-17F. Put plainly: AlphaScreen competition, hIL-17F - IL-17RA-Fc. On the technique in general: Alpha assays give light when donor and acceptor beads are brought close together.
Experimental: as §2
Test [7] concerns the target T2, human IL-17A/F heterodimer. The experiment in a line: AlphaScreen competition, hIL-17A/F - IL-17RC-Fc.
Target sequence in this assay (Q16552 24-155 limits assumed, chain 1 of 2, one chain of several): as the sequence (Q16552 24-155 limits assumed, one chain of several) above
Experimental: as §2
The target of test [8] is T3, human IL-17F. The experiment in a line: AlphaScreen competition, hIL-17F - IL-17RC-Fc.
Experimental: as §2
The target of test [9] is T4, human IL-17A (human, UniProt Q16552 24-155).
T4 construct: secreted form (GenBank U32659) expressed in Hek293 with C-terminal 6-His; also called hIL-17A; IL-17A-6HIS
Put plainly: AlphaScreen IL-17A-IL-17RA, average.

The target of test [10] is T5, human IL-17A/F heterodimer (human, UniProt Q16552 24-155; Q96PD4 31-163, limits assumed).
T5 construct: produced in E. coli, bought from R&D Systems (Cat 5194-IL/CF); also called hIL-17A/F
Put plainly: SPR.
T5 sequence (Q16552 24-155 limits assumed, chain 1 of 2, one chain of several): as the sequence (Q16552 24-155 limits assumed, one chain of several) above

For test [11], the target named is T4, human IL-17A. The experiment in a line: SPR.
In test [12] the target is T6, human IL-17F (human, UniProt Q96PD4 31-163).
T6 construct: made in Hek293 cells (GenBank AF384857); also called hIL-17F; hIL17F
T6 sequence: T3 sequence
The experiment in a line: AlphaScreen IL-17F-IL-17RC; vs IL17MS16A04.

The target in test [13] is T7, human IL-17A/F heterodimer (human, UniProt Q16552 24-155; Q96PD4 31-163, limits assumed).
T7 construct: bought, made in E. coli (R&D Systems 5194-IL/CF); also called hIL-17A/F; hIL17A/F
The experiment in a line: SPR (Biacore) off-rate.
T7 sequence (Q16552 24-155 limits assumed, chain 1 of 2, one chain of several): as the sequence (Q16552 24-155 limits assumed, one chain of several) above

For test [14], the target named is T6, human IL-17F. The experiment in a line: SPR (Biacore) off-rate.
The target of test [15] is T3, human IL-17F. The experiment in a line: SPR Biacore, hIL-17F on chip; purified protein.
Experimental: as §1

T1 sequence (Q16552 other isoform, or with tags, fused parts or gaps): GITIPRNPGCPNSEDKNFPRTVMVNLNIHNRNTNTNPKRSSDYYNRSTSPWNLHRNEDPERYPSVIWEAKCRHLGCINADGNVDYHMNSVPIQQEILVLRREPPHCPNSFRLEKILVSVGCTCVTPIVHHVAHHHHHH
T4 sequence (Q16552 other isoform, or with tags, fused parts or gaps): as above

B1: 12A09 (VHH)
VHH: EVQLVESGGGLVQPGGSLRLSCAASGFTFSSYRMAWVRQAPGKGLEWVSSTSTGGEMTNYADSVKGRFTISRDNAKNTLHLQMNSLKPEDTALYYCAAGTSAGHWSTGGQGTQVTVSS
notes: Class 3 Nanobody (anti-IL-17F); not shown: c-myc, His6 tag
B1: the binding result in the test with human IL-17A [1] was “no binding”. Further, the IC50 in [2] is over 250 nM; with human IL-17F [6], 1.84 nM; in [7] it was 33.2 nM; with human IL-17F [8], 0.612 nM. Moreover, the koff in [3] worked out at 0.017 s⁻¹. Moreover, the “IL-17F-induced IL-6 production in HT-1080 cells, Emax” value with human IL-17F [4] was 91%. The “IL-17F-induced IL-6 production in HT-1080 cells, IC50” value with human IL-17F [4] worked out at 105 nM. For the same molecule, in test [5], the “IL-17A/F-induced IL-6 production in HT-1080 cells, Emax” value turned out to be 41.5%. Moreover, the “IL-17A/F-induced IL-6 production in HT-1080 cells, IC50” value in [5] was found to be 100 nM.

B2: 08B07 (VHH)
VHH: EVQLVESGGGLVQPGGSLRLSCAASGRDFRVKNVGWIRQAPGKQRELVATITVGGSTNYADSAKGRFTISRDNAKNTVYLQMSSLKPEDTAVYYCNAVATVTDYTGTYSDGFWGQGTQVTVSS
notes: as for B1
As for B2, the binding result in the test with human IL-17A [1] was “no binding”.

B3: 24B08 (VHH)
VHH: EVQLVESGGGLVQAGGSLRLSCAVSGGTFSTYKMGWFRQAPGKEREIVARISTNGPTAYAEFVKGRFTVSRENTKNTVYLQMNSLNIEDTAVYYCAAGYDSLFAGYDYWGQGTQVTVSS
notes: as for B1
With B3, the binding result with human IL-17A [1] is given as “no binding”.

B4: IL17MS3010 (VHH, name in Kabat numbering)
VHH: EVQLVESGGGLVQPGGSQRLSCTASGTIVNIHVMGWYRQAPGKQRELVALIFSGGSADYADSVKGRFTISRDNSKNTVYLQMNSLRAEDTAVYYCAAEIGYYSGGTYYSSEAHWGQGTLVTVSS
notes: also called IL17MS3010 basic
In the case of B4, the IC50 in the test with human IL-17A [9] turned out to be 0.184 nM. Moreover, the koff in [10] was 0.000217 s⁻¹; in the test with human IL-17A [11], 0.00013 s⁻¹.

B5: IL17MS3011 (VHH, name in Kabat numbering)
VHH: B4 VHH with Q18L
notes: basic + Q18L; Kabat positions
In the case of B5, the IC50 with human IL-17A [9] was 0.139 nM. Moreover, the koff in [10] was 0.000223 s⁻¹; with human IL-17A [11], 0.000132 s⁻¹.

B6: IL17MS3013 (VHH, name in Kabat numbering)
VHH: B4 VHH with A87P
notes: basic + A84P; Kabat positions
B6: in the test with human IL-17A [9], the IC50 was found to be 0.081 nM. For the same molecule, the koff in test [10] was found to be 0.000185 s⁻¹; in the test with human IL-17A [11] it was 0.000116 s⁻¹.

B7: IL17MS3017 (VHH, name in Kabat numbering)
VHH: B4 VHH with Q18L, T23A, A87P
notes: basic + Q18L, T23A, A84P; Kabat positions
Molecule B7 returned a half-maximal inhibitory concentration (IC50) with human IL-17A [9] of 0.163 nM. Besides, the koff in test [10] stood at 0.000242 s⁻¹; with human IL-17A [11], 0.000144 s⁻¹.

B8: IL17MS3012 (VHH, name in Kabat numbering)
VHH: B4 VHH with T23A
notes: basic + T23A; Kabat positions
In the test with human IL-17A [9], B8 registered an IC50 of 0.101 nM. Besides, the figures for the koff (in test [10]; in the test with human IL-17A [11]) were 0.000228 s⁻¹ and 0.000137 s⁻¹, respectively.

B9: 07B11 (VHH)
VHH: EVQLVESGGGLVQAGGSLRLSCVASGRAFSSYVMGWFRQAPGMEREFVALIRWSDGITGYVDSVKGRFTISRDNAKNTVYLQMNSLKPEDTAVYYCAAAVRPGDYDYWGQGTQVTVSS
notes: as for B1
With B9, in the test with human IL-17A [1], the binding result is “no binding”.

B10: IL17MS3059 (VHH)
VHH: DVQLVESGGGLVQPGGSLRLSCAASGRTFSSYVVGWFRQAPGKEREFVGAISGSGESIYYAVSEKGRFTISRDNSKNTLYLQMNSLRPEDTAVYYCTADQEFGYLRFGRSEYWGQGTLVTVSS
notes: variant of IL17MS16A04; Kabat numbering
With B10, the “IC50 fold difference vs WT” value with human IL-17F [12] came to 6.7 fold.

B11: IL17MS3054 (VHH)
VHH: B10 VHH with D1E, V48I, E56D, G66D, N84S
notes: as for B10
B11: the results for the dissociation rate constant (koff) (in test [13]; with human IL-17F [14]) were 0.00308 s⁻¹ and 0.000459 s⁻¹, respectively.

B12: IL17MS3055 (VHH)
VHH: B10 VHH with D1E, V48I, E56D, S75G, P88A
Take B12: the off-rate (koff) was found to be 0.00332 s⁻¹ in test [13] and 0.000493 s⁻¹ with human IL-17F [14].

B13: IL17MS3065 (VHH)
VHH: B10 VHH with V48I, E56D, S57T
notes: as for B10
For B13, the “IC50 fold difference vs WT” value with human IL-17F [12] stood at 12.7 fold.

B14: IL17MS3064 (VHH)
VHH: B10 VHH with E56D, S57T
notes: as for B10
Consider B14, for which, in the test with human IL-17F [12], the “IC50 fold difference vs WT” value came to 30.3 fold.

B15: IL17MS3062 (VHH)
VHH: B10 VHH with D1E
notes: as for B10
As to B15, the “IC50 fold difference vs WT” value with human IL-17F [12] was 7.4 fold.

B16: 08A08 (VHH)
VHH: EVQLVESGGGLVQAGGSLRLSCAASGRTFRPYRMGWFRRAPGKAREFVTLISWSSGRTSYADSVKGRFTISRDSAKNAVYLQMDNLKPEDTAVYFCAVDLSGDAVYDSWGQGTQVTVSS
notes: as for B1
B16: the binding result in the test with human IL-17A [1] is on record as “no binding”. In addition, the figures for the koff (with human IL-17F [15]; in test [3]) were 0.048 s⁻¹ and 0.0079 s⁻¹, respectively. Further, the “IL-17F-induced IL-6 production in HT-1080 cells, Emax” value with human IL-17F [4] is 62%. Moreover, the “IL-17F-induced IL-6 production in HT-1080 cells, IC50” value in the test with human IL-17F [4] came out at 206 nM. The figures for the IC50 (in the test with human IL-17F [6]; in test [7]; with human IL-17F [8]) were 3.84 nM, 19.7 nM and 1.3 nM, respectively.

B17: 07B09 (VHH)
VHH: EVQLVESGGGLVQAGGSLRLSCGASGGTFSSYATGWFRQAPGKEREFVAVLRWSDGHTAYADSVKGRFTISRDGAKNTMYLQMSSLKPEDTAIYYCTTATRPGEWDYWGQGTQVTVSS
notes: as for B1
In the case of B17, the binding result with human IL-17A [1] is on record as “no binding”.

B18: 24G10 (VHH)
VHH: B17 VHH with S25A, L51F, G56S, M79L
notes: as for B1
Regarding B18, in the test with human IL-17A [1], the binding result is “no binding”.

What is called IC50 is the point on the concentration scale where inhibition reaches its midpoint. Low values mean inhibition by little substance, high ones a need for much substance. Broadly, the koff is the rate constant with which the complex falls apart. Low readings indicate a long-lived complex, high ones a short-lived complex.

The record behind these values is US20210130452A1 (Merck KGaA, published 2021).
